Measurements as given in the Human Domainome abundance scans (Beltran et al. 2025).
± gives the uncertainty stated by the source.

B1: GAS2-like protein 1, residues 209 to 276; numbered along this chain, Q99501 (parent)
chain: DELVREILGRCTCPDQFPMIKVSEGKYRVGDSSLLIFVRVLRSHVMVRVGGGWDTLEHYLDKHDPCRC

Variants of: B1
Assay: abundance fitness (aPCA) (normalised: wild type 0, dead -1); higher = more abundant; growth selection in yeast, the domain comes from the species named
Details: Homo sapiens

Row | Variant | abundance fitness
1 | DELVREILGRCTCPDQFPMAKVSEGKYRVGDSSLLIFVRVLRSHVMVRVGGGWDTLEHYLDKHDPCRC | -0.216 ± 0.08
2 | DELVREILGRCTCPDQFPMCKVSEGKYRVGDSSLLIFVRVLRSHVMVRVGGGWDTLEHYLDKHDPCRC | -0.366 ± 0.1
3 | DELVREILGRCTCPDQFPMEKVSEGKYRVGDSSLLIFVRVLRSHVMVRVGGGWDTLEHYLDKHDPCRC | -0.016 ± 0.087
4 | DELVREILGRCTCPDEFPMIKVSEGKYRVGDSSLLIFVRVLRSHVMVRVGGGWDTLEHYLDKHDPCRC | -0.42 ± 0.12
5 | DELVREILGRCTCPDNFPMIKVSEGKYRVGDSSLLIFVRVLRSHVMVRVGGGWDTLEHYLDKHDPCRC | -0.634 ± 0.12
6 | DELVREILGRCTCPDGFPMIKVSEGKYRVGDSSLLIFVRVLRSHVMVRVGGGWDTLEHYLDKHDPCRC | -0.131 ± 0.046
7 | DELVREILGRCTCPDPFPMIKVSEGKYRVGDSSLLIFVRVLRSHVMVRVGGGWDTLEHYLDKHDPCRC | 0.131 ± 0.047
8 | DELVREILGRCTCPDKFPMIKVSEGKYRVGDSSLLIFVRVLRSHVMVRVGGGWDTLEHYLDKHDPCRC | 0.113 ± 0.047
9 | DELVREILGRCTCPDFFPMIKVSEGKYRVGDSSLLIFVRVLRSHVMVRVGGGWDTLEHYLDKHDPCRC | -0.623 ± 0.16
10 | DELVREILGRCTCPDVFPMIKVSEGKYRVGDSSLLIFVRVLRSHVMVRVGGGWDTLEHYLDKHDPCRC | -0.269 ± 0.043
11 | DELVREILGRCTCPDMFPMIKVSEGKYRVGDSSLLIFVRVLRSHVMVRVGGGWDTLEHYLDKHDPCRC | -0.276 ± 0.048
12 | DELVREILGRCTCPDIFPMIKVSEGKYRVGDSSLLIFVRVLRSHVMVRVGGGWDTLEHYLDKHDPCRC | -0.351 ± 0.077
13 | DELVREILGRCTCPDTFPMIKVSEGKYRVGDSSLLIFVRVLRSHVMVRVGGGWDTLEHYLDKHDPCRC | -0.11 ± 0.044
14 | DELVREILGRCTCPDSFPMIKVSEGKYRVGDSSLLIFVRVLRSHVMVRVGGGWDTLEHYLDKHDPCRC | -0.172 ± 0.041
15 | DELVREILGRCTCPDYFPMIKVSEGKYRVGDSSLLIFVRVLRSHVMVRVGGGWDTLEHYLDKHDPCRC | -0.848 ± 0.11
16 | DELVREILGRCTCPDHFPMIKVSEGKYRVGDSSLLIFVRVLRSHVMVRVGGGWDTLEHYLDKHDPCRC | -0.486 ± 0.095
17 | DELVREILGRCTCPDAFPMIKVSEGKYRVGDSSLLIFVRVLRSHVMVRVGGGWDTLEHYLDKHDPCRC | -0.224 ± 0.053
18 | DELVREILGRCTCPGQFPMIKVSEGKYRVGDSSLLIFVRVLRSHVMVRVGGGWDTLEHYLDKHDPCRC | -0.379 ± 0.1
19 | DELVREILGRCTCPNQFPMIKVSEGKYRVGDSSLLIFVRVLRSHVMVRVGGGWDTLEHYLDKHDPCRC | 0.087 ± 0.077
20 | DELVREILGRCTCPMQFPMIKVSEGKYRVGDSSLLIFVRVLRSHVMVRVGGGWDTLEHYLDKHDPCRC | 0.046 ± 0.05

Row | Variant | abundance fitness
21 | DELVREILGRCTCPTQFPMIKVSEGKYRVGDSSLLIFVRVLRSHVMVRVGGGWDTLEHYLDKHDPCRC | 0.125 ± 0.059
22 | DELVREILGRCTCPHQFPMIKVSEGKYRVGDSSLLIFVRVLRSHVMVRVGGGWDTLEHYLDKHDPCRC | 0.017 ± 0.082
23 | DELVREILGRCTCPKQFPMIKVSEGKYRVGDSSLLIFVRVLRSHVMVRVGGGWDTLEHYLDKHDPCRC | 0.034 ± 0.053
24 | DELVREILGRCTCPRQFPMIKVSEGKYRVGDSSLLIFVRVLRSHVMVRVGGGWDTLEHYLDKHDPCRC | 0.018 ± 0.038
25 | DELVREILGRCTCPVQFPMIKVSEGKYRVGDSSLLIFVRVLRSHVMVRVGGGWDTLEHYLDKHDPCRC | 0.054 ± 0.04
26 | DELVREILGRCTCPQQFPMIKVSEGKYRVGDSSLLIFVRVLRSHVMVRVGGGWDTLEHYLDKHDPCRC | -0.002 ± 0.081
27 | DELVREILGRCTCPYQFPMIKVSEGKYRVGDSSLLIFVRVLRSHVMVRVGGGWDTLEHYLDKHDPCRC | -0.151 ± 0.052
28 | DELVREILGRCTCPSQFPMIKVSEGKYRVGDSSLLIFVRVLRSHVMVRVGGGWDTLEHYLDKHDPCRC | 0.026 ± 0.039
29 | DELVREILGRCTCPPQFPMIKVSEGKYRVGDSSLLIFVRVLRSHVMVRVGGGWDTLEHYLDKHDPCRC | -0.964 ± 0.21
30 | DELVREILGRCTCPWQFPMIKVSEGKYRVGDSSLLIFVRVLRSHVMVRVGGGWDTLEHYLDKHDPCRC | -0.32 ± 0.069
31 | DELVREILGRCTCPIQFPMIKVSEGKYRVGDSSLLIFVRVLRSHVMVRVGGGWDTLEHYLDKHDPCRC | 0.014 ± 0.058
32 | DELVREILGRCTCPLQFPMIKVSEGKYRVGDSSLLIFVRVLRSHVMVRVGGGWDTLEHYLDKHDPCRC | -0.058 ± 0.034
33 | DELVREILGRCTCPDQFGMIKVSEGKYRVGDSSLLIFVRVLRSHVMVRVGGGWDTLEHYLDKHDPCRC | -0.475 ± 0.058
34 | DELVREILGRCTCPDQFEMIKVSEGKYRVGDSSLLIFVRVLRSHVMVRVGGGWDTLEHYLDKHDPCRC | -0.132 ± 0.066
35 | DELVREILGRCTCPDQFMMIKVSEGKYRVGDSSLLIFVRVLRSHVMVRVGGGWDTLEHYLDKHDPCRC | -0.501 ± 0.085
36 | DELVREILGRCTCPDQFSMIKVSEGKYRVGDSSLLIFVRVLRSHVMVRVGGGWDTLEHYLDKHDPCRC | -0.043 ± 0.045
37 | DELVREILGRCTCPDQFDMIKVSEGKYRVGDSSLLIFVRVLRSHVMVRVGGGWDTLEHYLDKHDPCRC | -0.207 ± 0.064
38 | DELVREILGRCTCPDQFYMIKVSEGKYRVGDSSLLIFVRVLRSHVMVRVGGGWDTLEHYLDKHDPCRC | -0.669 ± 0.14
39 | DELVREILGRCTCPDQFIMIKVSEGKYRVGDSSLLIFVRVLRSHVMVRVGGGWDTLEHYLDKHDPCRC | -0.524 ± 0.1
